From patent publication US20080050351A1 (Pfizer, published 2008)

Molecular target: T1, lecithin:cholesterol acyltransferase (LCAT), purified from human plasma (human, UniProt P04180 25-440)
T1 sequence (looked up): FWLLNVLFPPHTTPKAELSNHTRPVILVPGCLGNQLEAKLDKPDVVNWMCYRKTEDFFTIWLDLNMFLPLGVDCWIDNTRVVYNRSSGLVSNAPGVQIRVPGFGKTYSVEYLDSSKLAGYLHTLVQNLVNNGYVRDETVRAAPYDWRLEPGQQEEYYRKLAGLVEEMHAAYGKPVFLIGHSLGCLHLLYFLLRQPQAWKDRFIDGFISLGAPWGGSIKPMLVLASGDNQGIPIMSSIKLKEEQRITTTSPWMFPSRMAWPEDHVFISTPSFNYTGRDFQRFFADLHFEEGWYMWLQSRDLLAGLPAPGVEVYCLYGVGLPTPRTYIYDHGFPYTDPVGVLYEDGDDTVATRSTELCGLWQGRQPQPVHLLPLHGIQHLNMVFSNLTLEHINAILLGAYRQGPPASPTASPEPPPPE
Test: cell-based or functional assay

B1: peptide 221 (peptide)
peptide: DVLDLFRELLEELKQKLK
ACTIVITY (%) LCAT: 12%
